Measurements taken from patent publication US20230203203A1 (YISSUM RESEARCH DEVELOPMENT COMPANY OF THE HEBREW …, published 2023).
Square brackets hold non-standard residues; d marks the D form. Ends that are not written are not given here. AEEA = NCCOCCOCC(=O)O

How the values were obtained:
human CD177 [1] = target: T1, human CD177 (human, UniProt Q8N6Q3 22-408); experiment: flow cytometry on WBCs of healthy volunteers, anti-M13-PE (FIG. 13I)
T1 construct: whole, on cells; On circulating human neutrophils of donors and patients; also called CD177 (on human neutrophils)
T1 sequence (looked up): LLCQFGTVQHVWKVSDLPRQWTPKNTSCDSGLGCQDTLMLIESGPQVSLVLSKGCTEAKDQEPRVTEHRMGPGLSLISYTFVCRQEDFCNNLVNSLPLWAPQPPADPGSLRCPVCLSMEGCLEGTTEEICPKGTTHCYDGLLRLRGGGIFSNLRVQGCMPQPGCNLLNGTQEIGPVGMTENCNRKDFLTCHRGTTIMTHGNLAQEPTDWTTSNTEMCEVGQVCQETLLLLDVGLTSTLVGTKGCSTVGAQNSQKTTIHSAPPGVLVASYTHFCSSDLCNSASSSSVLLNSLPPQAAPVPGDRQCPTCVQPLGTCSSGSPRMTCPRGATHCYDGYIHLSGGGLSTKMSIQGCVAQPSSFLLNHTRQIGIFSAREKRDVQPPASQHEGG
Method: In order to assess the binding efficiency of each peptide to human circulating neutrophils, and the level of variability between individuals, the individual binding of each peptide to 5-8 healthy volunteers was assessed. Blood withdrawn from healthy volunteers was overlaid on 3% dextran in 0.9% NaCl in a 1:1 ratio and left at RT for 25 min to allow erythrocyte sedimentation. Residual RBCs were lysed by adding water for 30 sec and stopped by adding PBS×5 supplemented with 2.5% BSA. Following red blood cell lysis, 0.5×10⁶ WBCs were incubated with each phage separately. The level of binding of the different phages to the neutrophils was then assessed by flow cytometry. Neutrophils were identified based on a CD66b⁺ SSC^high gating, and the level of phage binding was assessed using PE-conjugated anti-M13 antibody for specific phage staining.

murine CD177 [2] = target: T2, murine CD177 (mouse, UniProt Q8R2S8 22-817); experiment: pull-down from murine neutrophil lysate with biotinylated LQI-tetramer on streptavidin-agarose beads, mass spectrometry
T2 construct: whole, on cells; On murine neutrophils (HDN, TAN, circulating), on HEK293T cells ectopically expressing it, and from neutrophil lysate in the pull-down; also called mouse CD177; CD177 (on murine neutrophils)
T2 sequence (looked up): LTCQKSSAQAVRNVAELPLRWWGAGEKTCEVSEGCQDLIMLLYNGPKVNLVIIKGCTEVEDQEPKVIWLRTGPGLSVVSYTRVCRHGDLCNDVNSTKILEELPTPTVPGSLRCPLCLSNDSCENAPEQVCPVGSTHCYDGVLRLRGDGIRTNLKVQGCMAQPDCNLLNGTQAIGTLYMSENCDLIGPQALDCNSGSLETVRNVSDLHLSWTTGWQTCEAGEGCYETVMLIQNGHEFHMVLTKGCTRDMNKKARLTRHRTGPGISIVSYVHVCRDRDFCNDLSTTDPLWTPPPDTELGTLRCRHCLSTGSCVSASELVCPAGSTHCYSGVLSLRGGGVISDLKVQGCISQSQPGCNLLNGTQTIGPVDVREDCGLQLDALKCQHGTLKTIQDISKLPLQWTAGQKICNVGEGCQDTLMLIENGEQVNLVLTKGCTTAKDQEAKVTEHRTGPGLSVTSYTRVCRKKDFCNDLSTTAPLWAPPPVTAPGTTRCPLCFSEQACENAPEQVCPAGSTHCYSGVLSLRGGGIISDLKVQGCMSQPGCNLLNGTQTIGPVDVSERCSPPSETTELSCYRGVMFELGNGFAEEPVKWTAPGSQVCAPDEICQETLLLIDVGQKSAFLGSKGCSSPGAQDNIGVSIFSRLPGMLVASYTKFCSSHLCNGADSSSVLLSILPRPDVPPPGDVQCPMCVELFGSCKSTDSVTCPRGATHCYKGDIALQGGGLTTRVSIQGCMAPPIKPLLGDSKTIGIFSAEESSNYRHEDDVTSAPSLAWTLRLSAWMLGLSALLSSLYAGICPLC
Method: After washing, the bound proteins were eluted by incubating the beads for 10 min at 95° C. in protein sample buffer containing beta-mercaptoethanol. The gel was stained using silver staining. Lanes of the eluates of peptide- and control-beads were cut out and analyzed by mass spectrometry.

murine CD177 [3] = target: T2, murine CD177; experiment: titration on purified murine HDNs, flow cytometry; target named as neutrophils
human CD177 [4] = target: T1, human CD177; experiment: negative control on WBCs of a lung cancer patient, flow cytometry
murine CD177 [5] = target: T2, murine CD177; experiment: flow cytometry on WBC of 4T1 tumor bearing mice, anti-M13-PE; target named as neutrophils

Row | Binder | percent of circulating neutrophils bound, average of donors (human CD177 [1]) [%] | also measured
1 | SSLMTTQLIATSI (peptide, not shown: large carriers) [phage presenting peptide 14 (SSL)] | 60 | –
2 | ELVTASMPRPNN (other, not shown: phage coat protein pVIII flanking the inserted peptide) [phage presenting peptide ELV] | ~60 | –
3 | LATTHMVFSPDH (other, not shown: phage coat protein pVIII flanking the inserted peptide) [phage presenting peptide 27 (LAT)] | ~60 | –
4 | LQIQSWSSSP[AEEA][AEEA]C (also: tetramer: four chains joined via Cys-Mpa to branched Lys core, Branched tetramer, MW 7.6 kDa; Detected with SA-Cy3 after washing ('tetramer alone' assay); also called tetrameric LQI; biotinylated LQI-tetramer) [LQI tetramer peptide, (LQIQSWSSSP-Doa-Doa-C)4-(Mpa)4-Lys2-Lys-beta-Ala-Lys(Biotin)-beta-Ala-OH] | – | peptide/control ratio (murine CD177 [2]): 7.89; Kd (murine CD177 [3]): 3.3 µM; binding result (human CD177 [4]): no binding
5 | PSSNLESTPLSLL (other, not shown: phage coat protein pVIII flanking the inserted peptide) [phage presenting peptide 4 (PSS)] | ~60 | –
6 | SELRSTPLLVPS (other, not shown: phage coat protein pVIII flanking the inserted peptide) [phage presenting peptide SEL] | ~60 | –
7 | SLESSPMAQLPQ (other, not shown: phage coat protein pVIII flanking the inserted peptide) [phage presenting peptide SLE] | ~60 | –
8 | PELDSKPYFPPL (other, not shown: phage coat protein pVIII flanking the inserted peptide) [phage presenting peptide PEL] | ~60 | –
9 | KFPDLDSRRLPHMSL (other, detected with PE-conjugated anti-M13 antibody; not shown: phage coat protein pVIII flanking the inserted peptide) [phage presenting peptide 1.1 (KFP)] | ~60 | –
10 | LQIQSWSSSP (peptide, part only; not given: phage coat protein VIII, part only) [phage presenting the … (SEQ ID NO: 9) peptide on coat protein VIII] | – | percent of neutrophils bound (murine CD177 [5]): 95%
